“And” between values parts separate entries of the source, which are not always exact repeats. Identical values can stand only once.

For experiment [1], the target named is T1, human CC-chemokine receptor 2 (CCR2), endogenous on THP-1 cells, THP-1 membranes and human blood cells (human, UniProt P41597 1-374).
T1 construct: whole, on cells; The isoform is not specified for THP-1 cells or PBMC; also called CKR-2; MCP-1RA
Nature of the experiment: competition with 0.1 nM [125I]MCP-1 on THP-1 cell membranes, filtration and scintillation counting. The procedure:
FIG. 4 illustrates that mAb 1D9 inhibits [¹²⁵I]MCP-1 binding to THP-1 cell membranes. 3.0 μg of THP-1 membrane protein was incubated with 0.1 nM [¹²⁵I]MCP-1 in the presence of various concentrations of 1D9 or the isotype-matched anti-CXCR3 antibody 1C6. The amount of bound tracer was determined by separation of free from bound by filtration and scintillation counting. The data was analyzed to determine the IC₅₀ value by non-linear regression using a 4-parameter logistic equation with KaleidaGraph software.
MCP-1 binding was performed in a final volume of 0.1 ml of 50 mM Hepes pH 7.4, 1 mM CaCl₂, 5 mM MgCl₂, 0.02% sodium azide, 0.5% BSA (HBB), containing either 2.5 μg THP-1 membrane protein or 500,000 PBMC and 0.1 nM of [¹²⁵I]-MCP-1. Competition binding experiments were performed by including variable concentrations of unlabeled MCP-1, 1D9 antibody, or a negative control IgG2a. Nonspecific binding was determined following the addition of a 2500-fold excess of unlabeled MCP-1. […] The filters were washed in HBB further supplemented with 0.5 M NaCl, dried, and the amount of bound radioactivity determined by liquid scintillation counting. mAb 1D9 inhibits [¹²⁵I]MCP-1 binding to THP-1 cell membranes with an IC₅₀ of about 0.004 μg/ml (approximately 0.02 nM; FIG. 4) and to fresh PBMC with an IC₅₀ of 0.04 μg/ml (approximately 0.2 nM; FIG. 5).

Experiment [2] addresses T2, CCR1 expressed on L1/2 transfectants (UniProt P32246 1-355, limits assumed).
T2 construct: whole, on cells; also called CCR1 transfectants
T2 sequence (looked up): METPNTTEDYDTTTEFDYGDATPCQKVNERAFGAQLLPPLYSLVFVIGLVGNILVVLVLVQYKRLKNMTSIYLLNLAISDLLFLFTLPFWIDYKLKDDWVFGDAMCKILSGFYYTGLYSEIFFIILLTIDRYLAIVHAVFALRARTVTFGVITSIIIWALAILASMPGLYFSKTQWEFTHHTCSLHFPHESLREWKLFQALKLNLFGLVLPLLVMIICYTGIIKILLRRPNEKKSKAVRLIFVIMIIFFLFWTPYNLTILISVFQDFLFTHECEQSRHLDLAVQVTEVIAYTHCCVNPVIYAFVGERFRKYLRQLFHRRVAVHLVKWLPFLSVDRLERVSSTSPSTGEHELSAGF
Nature of the experiment: flow cytometry on L1/2 transfectants, hybridoma supernatant. As for the experimental part: (§1) For the staining of cultured transfectant cell lines 0.5×10⁶ cells in 50 μl were resuspended in PBS+1% FCS in a 96 well polystyrene V-bottom plate. 50 μl of primary antibody supernatants or HT medium (negative control) were added, and the samples were incubated at 4° C. for 30 min. 100 μl of PBS were added and the cells were pelleted by centrifugation and washed once with PBS. The pellet was resuspended in 100 μl PBS+1% FCS containing FITC-conjugated goat anti-mouse IgG antibody (a 1:250 dilution) and incubated for thirty minutes at […] in the dark. The cells were washed twice with PBS, resuspended in PBS, and analyzed by flow cytometry with a FacScan cytometer using the CellQuest software (Becton-Dickenson) Cells were fixed with PBS/1% formaldehyde if they were not to be analyzed the same day. Monoclonal antibodies 1D9 and 8G2 stain CCR2 transfectants but not CCR1 or CCR5 transfectants (FIGS. 1A-10).
Background: A flow cytometer gives signals particle by particle.

Experiment [3] has as its target T3, CCR5 expressed on L1/2 transfectants (UniProt P51681 1-352, limits assumed).
T3 construct: whole, on cells; also called CCR5 transfectants
The description is as above. As for the experimental part: as §1

Experiment [4] deals with T1, human CC-chemokine receptor 2 (CCR2), …. Nature of the experiment: competition with 0.1 nM [125I]MCP-1 on fresh PBMC, filtration and scintillation counting. As for the experimental part: MCP-1 binding was performed in a final volume of 0.1 ml of 50 mM Hepes pH 7.4, 1 mM CaCl₂, 5 mM MgCl₂, 0.02% sodium azide, 0.5% BSA (HBB), containing either 2.5 μg THP-1 membrane protein or 500,000 PBMC and 0.1 nM of [¹²⁵I]-MCP-1. Competition binding experiments were performed by including variable concentrations of unlabeled MCP-1, 1D9 antibody, or a negative control IgG2a. Nonspecific binding was determined following the addition of a 2500-fold excess of unlabeled MCP-1. Samples were incubated for 60 minutes at room temperature, and bound and free tracer were separated by filtration through 96-well GF/B filterplates presoaked in 0.3% polyethyleneimine. The filters were washed in HBB further supplemented with 0.5 M NaCl, dried, and the amount of bound radioactivity determined by liquid scintillation counting. mAb 1D9 inhibits [¹²⁵I]MCP-1 binding to THP-1 cell membranes with an IC₅₀ of about 0.004 μg/ml (approximately 0.02 nM; FIG. 4) and to fresh PBMC with an IC₅₀ of 0.04 μg/ml (approximately 0.2 nM; FIG. 5).

T1 sequence (P41597 whole entry, canonical isoform): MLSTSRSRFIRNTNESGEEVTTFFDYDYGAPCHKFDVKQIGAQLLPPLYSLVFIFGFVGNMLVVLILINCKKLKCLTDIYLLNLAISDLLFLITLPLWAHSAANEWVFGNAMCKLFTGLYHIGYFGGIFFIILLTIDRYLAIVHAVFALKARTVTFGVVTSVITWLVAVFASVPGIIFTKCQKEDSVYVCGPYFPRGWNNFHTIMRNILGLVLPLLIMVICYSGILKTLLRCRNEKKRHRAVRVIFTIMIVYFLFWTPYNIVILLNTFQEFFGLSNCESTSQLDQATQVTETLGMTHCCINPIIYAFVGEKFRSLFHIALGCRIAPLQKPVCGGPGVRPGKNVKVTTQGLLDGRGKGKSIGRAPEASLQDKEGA
T3 sequence (P51681 whole entry): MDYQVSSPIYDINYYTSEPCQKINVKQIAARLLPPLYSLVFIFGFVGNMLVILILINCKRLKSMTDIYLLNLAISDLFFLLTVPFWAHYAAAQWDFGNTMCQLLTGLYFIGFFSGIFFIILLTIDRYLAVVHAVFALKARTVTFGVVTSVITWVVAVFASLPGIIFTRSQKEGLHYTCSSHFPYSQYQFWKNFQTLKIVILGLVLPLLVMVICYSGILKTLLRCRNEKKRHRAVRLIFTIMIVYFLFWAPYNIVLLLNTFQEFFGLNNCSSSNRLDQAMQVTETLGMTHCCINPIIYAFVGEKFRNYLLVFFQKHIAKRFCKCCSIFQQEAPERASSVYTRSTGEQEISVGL

B1: murine monoclonal antibody LS132.1D9 (antibody, V domains shown)
VH: EVQLVESGGGLVQPKGSLKLSCAASGFSFNAYAMNWVRQAPGKGLEWVARIRTKNNNYATYYADSVKDRYTISRDDSESMLFLQMNNLKTEDTAMYYCVTFYGNGVWGTGTTVTVSS
VL: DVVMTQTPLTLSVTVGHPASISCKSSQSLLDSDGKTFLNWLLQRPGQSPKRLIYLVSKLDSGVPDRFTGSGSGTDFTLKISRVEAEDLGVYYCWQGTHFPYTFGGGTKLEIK
notes: Whole murine monoclonal antibody from hybridoma ATCC HB-12549, with a kappa light chain; The controls are called isotype-matched or murine IgG2a, which implies IgG2a; It was used as hybridoma supernatant in the FACS staining; also called mAb 1D9; mus-1D9
With B1, the IC50 (as a rule, the concentration at which inhibition is half-maximal) in experiment [1] was ~0.004 µg/mL and ~0.02 nM; in experiment [4] it was 0.04 µg/mL and ~0.2 nM. The binding result in experiment [2] and in experiment [3] was “no binding” in each case.

The values are drawn from patent US20130071381A1 (Takeda / Millennium, published 2013).
